Experimental findings from patent publication US20240309056A1 (NAVIGO PROTEINS, published 2024) are described below.

The Kd is the equilibrium constant for the complex coming apart. A higher Kd goes with weaker binding.

The target of assay [1] is T1, ubiquitin mutein 77404.
T1 construct: also called Affilin-77404
The assay can be described thus: SPR (Biacore 3000), ligand multimer immobilised, ubiquitin mutein in solution. Here is the method:
(§1) Purified proteins were immobilized via C-terminal Cysteine on a CM-5 sensor chip (GE Healthcare) using NHS/EDC after PDEA activation with a Biacore 3000 system (GE Healthcare). The chip was equilibrated with SPR running buffer (PBS 0.05% Tween pH 7.3). Soluble ubiquitin muteins (Affilin® proteins) applied to the chip in serial dilutions (different concentrations) with a flow rate of 30 μl/min. The association was performed for 120 seconds and the dissociation for 120 seconds. After each run, the chip surface was regenerated with 30 μl regeneration buffer (10 mM glycine pH 2.0) and equilibrated with running buffer. Affilin® proteins accumulated on the surface increasing the refractive index. This change in the refractive index was measured in real time and plotted as response or resonance units versus time.
(§2) Binding studies were carried out using the BIAcore 3000 (GE Healthcare); data evaluation was operated via the BIAevaluation 3.0 software, provided by the manufacturer, by the use of the Langmuir 1:1 model (RI=0). Evaluated dissociation constants (KD) were standardized against the immobilized protein and indicated. Shown is the change in refractive index measured in real time and plotted as response or resonance unit [RU] versus time [sec] (see Table 2).
On the technique in general: SPR reads the build-up and loss of mass on a sensor chip optically.

The target of assay [2] is T2, ubiquitin mutein 211883.
T2 construct: also called Affilin-211883
The description is as above. Here is the method: as §1, §2

In assay [3] the target is T3, ubiquitin mutein 200053.
T3 construct: also called Affilin-200053
The assay is described as above. Here is the method:
as §1, §2

The target of assay [4] is T1, ubiquitin mutein 77404. The assay can be described thus: SPR; SEQ ID NO: 2, unmutated. Here is the method:
as §1, §2

Assay [5] has as its target T1, ubiquitin mutein 77404. The assay can be described thus: SPR; point mutant M23E. Here is the method: as §1, §2
The target in assay [6] is T1, ubiquitin mutein 77404. The assay can be described thus: SPR; point mutant A16H. Here is the method: as §1, §2
Assay [7] addresses T1, ubiquitin mutein 77404. The assay can be described thus: SPR; point mutant F5E. Here is the method:
as §1, §2

Assay [8] addresses T1, ubiquitin mutein 77404. The assay can be described thus: SPR; point mutant K25R. Here is the method:
as §1, §2

Assay [9] addresses T1, ubiquitin mutein 77404. The assay can be described thus: SPR; point mutant M2K. Here is the method:
as §1, §2

Assay [10] has as its target T1, ubiquitin mutein 77404. The assay can be described thus: SPR; point mutant D3F. Here is the method:
as §1, §2

In assay [11] the target is T1, ubiquitin mutein 77404. The assay can be described thus: SPR; point mutant Y8Q. Here is the method:
as §1, §2

For assay [12], the target named is T1, ubiquitin mutein 77404. The assay can be described thus: SPR (Biacore 3000), ligand immobilised, ubiquitin mutein in solution; Table 1 run; ligand on the chip, Affilin-77404 in solution. Here is the method:
as §1, §2

In assay [13] the target is T1, ubiquitin mutein 77404. The assay can be described thus: SPR (Biacore 3000), ligand immobilised via C-terminal Cys on CM-5, ubiquitin mutein in solution, Langmuir 1:1. Here is the method:
as §1, §2

Assay [14] addresses T2, ubiquitin mutein 211883. The assay is described as above. Here is the method: as §1, §2
Assay [15] addresses T3, ubiquitin mutein 200053. Described as above. Here is the method:
as §1, §2

The target of a further assay is T4, ubiquitin mutein 139819.
T4 construct: Monomer with an insertion of 6 amino acids between positions 9 and 10 of ubiquitin; also called Affilin-139819
The description is as above. Here is the method: as §1, §2

Changes are numbered by the printed parent chain. Where only a bound is given, the exact number is not on record here.

B1: SEQ21 dimer (215996) (designed binder)
chain: NAARSDEAQYSAWAEIEALPNLTEMQKDQFIWSLMFDPSVSKEVLGEAQKLNDSQAPKQAPKVDAKFDQAPKVDAKFDNAARSDEAQYSAWAEIEALPNLTEMQKDQFIWSLMFDPSVSKEVLGEAQKLNDSQAPKC
Take B1: the values for the Kd with ubiquitin mutein 77404 [1], in the assay with ubiquitin mutein 211883 [2] and with ubiquitin mutein 200053 [3] were 0.16 nM, 78.1 nM and 5.5 nM, respectively.

B2: SEQ1 dimer (215999) (designed binder)
chain: B1 chain with R4M, S5D, E7F, R82M, S83D, E85F
As to B2, the values for the Kd with ubiquitin mutein 77404 [1] and with ubiquitin mutein 211883 [2] were 0.1 nM and 55.6 nM, respectively.

B3: SEQ 21 tetramer (215998) (designed binder)
chain: NAARSDEAQYSAWAEIEALPNLTEMQKDQFIWSLMFDPSVSKEVLGEAQKLNDSQAPKQAPKVDAKFDQAPKVDAKFDNAARSDEAQYSAWAEIEALPNLTEMQKDQFIWSLMFDPSVSKEVLGEAQKLNDSQAPKQAPKVDAKFDQAPKVDAKFDNAARSDEAQYSAWAEIEALPNLTEMQKDQFIWSLMFDPSVSKEVLGEAQKLNDSQAPKQAPKVDAKFDQAPKVDAKFDNAARSDEAQYSAWAEIEALPNLTEMQKDQFIWSLMFDPSVSKEVLGEAQKLNDSQAPKC
Take B3: the dissociation constant Kd with ubiquitin mutein 77404 [1] was determined as 0.05 nM; with ubiquitin mutein 211883 [2], 95.7 nM; with ubiquitin mutein 200053 [3], 8.3 nM.

B4: SEQ1 tetramer (216001) (designed binder)
chain: NAAMDDFAQYSAWAEIEALPNLTEMQKDQFIWSLMFDPSVSKEVLGEAQKLNDSQAPKQAPKVDAKFDQAPKVDAKFDNAAMDDFAQYSAWAEIEALPNLTEMQKDQFIWSLMFDPSVSKEVLGEAQKLNDSQAPKQAPKVDAKFDQAPKVDAKFDNAAMDDFAQYSAWAEIEALPNLTEMQKDQFIWSLMFDPSVSKEVLGEAQKLNDSQAPKQAPKVDAKFDQAPKVDAKFDNAAMDDFAQYSAWAEIEALPNLTEMQKDQFIWSLMFDPSVSKEVLGEAQKLNDSQAPKC
In the case of B4, the Kd came out at 0.6 nM with ubiquitin mutein 77404 [1], 93.1 nM with ubiquitin mutein 211883 [2] and 6.5 nM in the assay with ubiquitin mutein 200053 [3].

B5: SEQ ID NO: 2 (designed binder)
chain: AMDDFAQYSAWAEIEALPNLTEMQKDQFIWSLMFDPSVSKEVLGEAQKLNDSQAPK
notes: also called 187029 del2N
Turning to B5, in the assay with ubiquitin mutein 77404 [4], the Kd is under 0.5 nM.

B6: SEQ ID NO: 2_M23E (designed binder)
chain: B5 chain with M23E
Take B6: the Kd with ubiquitin mutein 77404 [5] is under 0.5 nM.

B7: SEQ ID NO: 2_A16H (designed binder)
chain: B5 chain with A16H
In the case of B7, the Kd with ubiquitin mutein 77404 [6] was under 0.5 nM.

B8: SEQ ID NO: 2_F5E (designed binder)
chain: B5 chain with F5E
As to B8, in the assay with ubiquitin mutein 77404 [7], the Kd was under 0.5 nM.

B9: SEQ ID NO: 2_K25R (designed binder)
chain: B5 chain with K25R
In the assay with ubiquitin mutein 77404 [8], B9 showed a Kd of under 0.5 nM.

B10: SEQ ID NO: 2_M2K (designed binder)
chain: B5 chain with M2K
On to B10, for which the Kd with ubiquitin mutein 77404 [9] is under 0.5 nM.

B11: SEQ ID NO: 2_D3F (designed binder)
chain: B5 chain with D3F
In the assay with ubiquitin mutein 77404 [10], B11 displayed a Kd of under 0.5 nM.

B12: SEQ ID NO: 2_Y8Q (designed binder)
chain: B5 chain with Y8Q
On to B12, for which the Kd with ubiquitin mutein 77404 [11] was under 0.5 nM.

B13: SEQ21 trimer (215997) (designed binder)
chain: NAARSDEAQYSAWAEIEALPNLTEMQKDQFIWSLMFDPSVSKEVLGEAQKLNDSQAPKQAPKVDAKFDQAPKVDAKFDNAARSDEAQYSAWAEIEALPNLTEMQKDQFIWSLMFDPSVSKEVLGEAQKLNDSQAPKQAPKVDAKFDQAPKVDAKFDNAARSDEAQYSAWAEIEALPNLTEMQKDQFIWSLMFDPSVSKEVLGEAQKLNDSQAPKC
On to B13, for which the Kd in the assay with ubiquitin mutein 77404 [1] worked out at 0.4 nM; in the assay with ubiquitin mutein 211883 [2], 73.4 nM; with ubiquitin mutein 200053 [3], 8.5 nM.

B14: SEQ1 trimer (216000) (designed binder)
chain: B13 chain with R4M, S5D, E7F, R82M, S83D, E85F, R160M, S161D, E163F
B14: the values for the Kd in the assay with ubiquitin mutein 77404 [1], in the assay with ubiquitin mutein 211883 [2] and with ubiquitin mutein 200053 [3] were 0.3 nM, 56.2 nM and 6.5 nM, respectively.

B15: affinity ligand 187029 (designed binder)
chain: NAAMDDFAQYSAWAEIEALPNLTEMQKDQFIWSLMFDPSVSKEVLGEAQKLNDSQAPK
notes: Artificial mosaic protein of Protein A-like structure
For the molecule B15, the Kd in the assay with ubiquitin mutein 77404 [12] was under 0.5 nM; in the assay with ubiquitin mutein 77404 [13], 1.3 nM; with ubiquitin mutein 211883 [14] it was 52.9 nM; with ubiquitin mutein 200053 [15] it was 5.9 nM; in the assay with ubiquitin mutein 139819, 75.5 nM.

B16: affinity ligand 187028 (designed binder)
chain: B15 chain with M4R, D5S, F7E
Consider B16, for which the Kd worked out at 0.6 nM with ubiquitin mutein 77404 [13], 66.2 nM with ubiquitin mutein 211883 [14], 2.5 nM with ubiquitin mutein 200053 [15] and 47.3 nM in the assay with ubiquitin mutein 139819.
